# pKi: −log10 of the molar value.
# Target: human cathepsin B (human)
# Assay: enzyme inhibition assay (residual activity on the fluorogenic substrate Z-Phe-Arg-MCA); cathepsin B or L (0.3 nM) incubated 5 min at 37°C with varied inhibitor in 100 mM sodium acetate pH 5.5, 2.5 mM DTT; substrate 0.01 mM; triplicate; Ki(app) by non linear regression (GraFit), Ki by Morrison's procedure
# Oryzacystatin-1, sequence (P09229 39-140): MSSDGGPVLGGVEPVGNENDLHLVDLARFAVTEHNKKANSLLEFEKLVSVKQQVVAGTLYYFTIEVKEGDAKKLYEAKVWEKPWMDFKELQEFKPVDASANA
row,pKi,Substance
1,7.06,Canecystatin-1 (natural protein)
2,7.11,Oryzacystatin-1 (from UniProt P09229 39-140) (natural protein)

# Target: human cathepsin L (human)
# Assay: as above
row,pKi,Substance
1,10.00,Canecystatin-1 (natural protein)
2,8.71,Reverse Mutant 1 (T30I) (designed binder)
3,7.93,Reverse Mutant 2 (Q97L) (designed binder)
4,7.90,"Reverse Mutant 3 (T30I, Q97L) (designed binder)"

# Source: paper PMC2959088
